# B1: ADI-18918 (antibody, V domains shown)
# VH: QVQLVQSGAEVKKPGESLKISCKGSGYSFSSFWIGWVRQMPGKGLEWMGIIYPGDSDTRYSPSFQGQVTMSADTSINTAYLQWNSVKASDTAIYYCARLPVGSYYYFNLWGRGTLVTVSS
# VL: EIVMTQSPATLSVSPGESATLFCRASQSISSDLAWYQQRPGQAPRLLIYDASTRATGVPARFSATGSEAEFTLTISGLQSEDFAVYYCQQYNNWLSWTFGQGTKLEIK
# notes: full-length IgG from yeast
# B2: ADI-18895 (antibody, V domains shown)
# VH: QVQLVQSGPEVKKTRESLKIYCKGSGYSFISHWIGWVRQKPGKGLEWMGIIYPGDSDTRYSPSFQGQVAISADKSINTAYLQWSSLKSSDTAIYYCASVMLRGIMWGQGTLVTVSS
# VL: DIRLTQSPSSLSASVGDRVTITCQASQDISKYLNWYQQKPGKAPKLLIYDASNLETGVPSRFSGSGSGTDFTFTISSLQPEDIATYYCQPYDNLPPPLTFGGGTKLEIK
# notes: full-length IgG from yeast; also called Antibody Number 250; Ab # 250
# B3: ADI-18942 (antibody, V domains shown)
# VH: QVQLQESGPGRVKPSQTLSLTCTVSGVSVTINDYYWTWLRQSPGKGLEWIGNIYNSGSTYQNPSLQSRVTMSVDTAKNHFSLKLTSVTAADTAVYYCARDLGTANNYYFGMDVWGLGTTVTVSS
# VL: EIVMTQSPATLSLSPGERATLSCRASQSVSTYLAWYQQKPGQAPRLLIYNGSNRVTGTPARFSGSGSGTDFTLTISSVEPEDFAVYYCQQRSNWPPYTFGQGTKVEIK
# notes: full-length IgG from yeast; also called Antibody Number 295; Ab # 295
# B4: ADI-18938 (antibody, V domains shown)
# VH: EVQLLESGGGLVQPGGSLRLSCAASGFTFSNYWMHWVRQAPGKGLVWVSRISGDGSDTTYADSVEGRFTISRDNARSTLYLQLNSLTGDDTAVYYCARDLWTTSPYFDLWGQGTLVTVSS
# VL: EIVLTQSPGTLSASIGDRVTITCRASQSLNGWLAWYQQKPGKAPRLLIYKSSSLESGVPSRFSGSASGTEFTLTISSLQPDDFATYYCQQYNSWAFGQGTKVDVK
# notes: full-length IgG from yeast; also called Antibody Number 291; Ab # 291
# B5: ADI-18924 (antibody, V domains shown)
# VH: QVQLVQSGAEVKKPGESLKISCQGSGYSFSSFWIVWVRQMPGKGLEWMGSIYPGDSDTRYTPSFQGQVTISADKSTSTAYLQWNSLKPSDTAMYYCARCSLSCDYYGVNLWGQGTTVTVSS
# VL: QSVVTQPPSVSGAPGQRVTISCSGSSSNIGARSDVHWYQQLPGKAPKLLIYGNTNRPLGVPDRFSGSTSGTSASLAISGLQAEDEGYYYCQSYDSSLSGFYVFGTGTKLTVL
# notes: full-length IgG from yeast
# B6: ADI-18970 (antibody, V domains shown)
# VH: QVQLQESGPRLVKPSQTLSLTCTVSGGSISSGDYYWSWIRQPPGKGLEWIGYIYYSGSTHYNPSLKSRVSMSVDTAKNQFSLKLTSVTAADTAVYYCARDIGYGDHGTGSYYYGIEDWGQGTTVTVSS
# VL: DIVMTQTPATLSLSPGDRATLSCRASQNIMSYLAWYQHKPGQPPRLLIYDASYRAAGIPARFSGSGSGTDFTLTISSLEPEDFAVYYCQQRTNWITFGQGTRLEIK
# notes: full-length IgG from yeast; also called Antibody Number 318; Ab # 318
# B7: ADI-18885 (antibody, V domains shown)
# VH: EVQLQESGPGLVKPLQTLSVTCSVSGGSISSGDNYWSWIRQRPGKGLEWIGYIYYSGTTYYNPSLKSRVTISADRSKNQFSLKMNSLSAADTAVYYCARDGGYDHIWGTHRYFALWGQGTLVTVSS
# VL: ETTLTQSPGTLSLSPGERATLSCRASQSVNSDYLAWYQQKLGQAPRLLIYGVSNRATGIPDRFTGSGSGTDFTLTISRLEPEDFAVYHCQQYGTSPWTFGQGTKVEIK
# notes: full-length IgG from yeast; also called Antibody Number 241; Ab # 241
# B8: ADI-18973 (antibody, V domains shown)
# VH: QVQLVQSGPALVKPTQTLTLTCTFGGFSLSRHGMRVTWIRQAPGKALEWLGHIDWDDDKFYRTSLKTRLTISKDPSNNEVVLKMTNMDHVDTATYYCALMRPFWSRDDYYYSIAVWGKGTTVTVSS
# VL: DIVLTQSPGTLSLSPGDRATLSCRASQSVGSGYVTWYQQKPGQAPRLLIYGASNRAEGIPDRFSGSGSGTDFTLTISGLESEDFVIYYCQLYHRSPGSASQTVWTFGQGTKVEIK
# notes: full-length IgG from yeast
# B9: ADI-18878 (antibody, V domains shown)
# VH: QVQLQESGPRLVKPSQTLSLICDVSGGSIGSGDHYWSWIRQPPGKGLEWIGYIYYSGTTYYNPSLKSRVTISADTSKNQLSLKLSSVTAADTAIYFCARDGGYDHVWGTHRYFDKWGQGTLVTVSS
# VL: EIVLTQSPGTLSLSPGERATLSCRASQSVSNSYLAWYQQKPGQAPRLLIYGVSTRATGIPDRFSGSGSGTDFTLTISRLEPEDFAMYHCQQYGASPWTFGQGTKVDIK
# notes: full-length IgG from yeast; also called Antibody Number 235; Ab # 235
# B10: ADI-18911 (antibody, V domains shown)
# VH: QVQLVESGAEARKPGESLKISCKASGYSFTNYWIGWVRQMPGKGLEWMGVIYPADSDTRYSPSFKGQVTISADKSISTAYLQWTRLKASDTAVYFCARLGIGAAARNYWGQGTLVTVSS
# VL: DIQVTQSPSSLSASVGDRVTITCQASQDISDSLNWYQQKPGKAPNLLIYDASKSETGVPSRFSGSGSGTDFTFTISSLQPEDLATYYCLQFDNLPPTFGQGTRLEIK
# notes: full-length IgG from yeast
# B11: ADI-18941 (antibody, V domains shown)
# VH: EVQLVESAAEVKKPGESLKISCKGSGYSFASHWIGWVRQMPGKGLELMGFIYPGDSDTRYNPSFQGQVTISADKSISTAYLQWTRLKASDTAMYYCGQAVAGGEYFHHWGQGTLVTVSS
# VL: DIVMTQSPATLSVSPGERATLSCRASQSLGSDLAWYQQKPGQTPRLLIYDASTRATGIPARFSGSGSGTEFTLTISSLQSEDFAVYYCQHYNNWPRGFGQGTKVEIK
# notes: full-length IgG from yeast
# B12: ADI-18976 (antibody, V domains shown)
# VH: EVQLVETGPGLVKPSETLSLTCTVSGDSISGYYWSWIRQSPGKGLEWIGYIYYRGSTDYNPSLKSRVTISVDTSKNQFSLKLSSVTAADTAVYYCARDNKHHDSGNYYAYFDHWGQGTLVTVSS
# VL: DIVMTQSPSSLSASVGDRVTITCRASQNINTFLNWYQHKPGKAPKLLIYGASRLQSGVPSRFTGSGSGTDFTLTISSLQPEDFATYSCQQSYTTRLTFGGGTKVEIK
# notes: full-length IgG from yeast
# B13: ADI-18897 (antibody, V domains shown)
# VH: EVQLVESGGGLVQPGGSLRLSCAASGFTIGTYWMSWVRQAPGKGLEWVANIKPDGSEQYYGDSVKGRFTISRDNAKNSLYLQMHSLRAEDAAVFYCARDTPDVLRHLEWPPVGAFDIWGQGTTVTVSS
# VL: EIVMTQSPDSLAVSLGERATINCKSSQSLFYSSTNQHYLAWYQQKPGQPPELLIYWASIRESGVPDRFSGSGSGTDFTLTISSLQAADVAVYYCQQYYSSPQTFGQGTKVEIK
# notes: full-length IgG from yeast
# B14: ADI-18909 (antibody, V domains shown)
# VH: QVQLQESGPGLVKPSQTLSLTCTVSGRFLNSGDYYWSWIRQSPGKGLEWLGYIHHSGNTYYNPSLKSRLTISLDMSKNQFSLKLSSVTAADTAVYYCARDLGKPLWDGHYYYGVDVWGQGTTVTVSS
# VL: DIVMTQSPGTLSLSPGERATLSCRTSQNVNSNYLAWYQHKPGQAPRLLIYGASSRVTGIPDRFSGSGSGTDFTLTITRVESEDFAVYYCQVYSSSPPITFGQGTKVEIK
# notes: full-length IgG from yeast; also called Antibody Number 264; Ab # 264
# B15: ADI-18887 (antibody, V domains shown)
# VH: QVQLVQSGAEVKRPGSSVKVSCKASGGTFSSYALSWVRQAPGQGLEWIGGIIPMHRVTNYAQKFRGRVTISADTSTSTAYLEVNSLRVEDTAMYYCARVFFGTCGGASCFPSDLWGQGTLVTVSS
# VL: EIVLTQSPSFVSASVGDGVTITCRASQAISSYLAWYQQKPGQAPKLLIYAASTLQGGVPSRFSGSGSGTHFTLTISSLQPEDFATYYCQQLHSDFQTFGPGTKVEIK
# notes: full-length IgG from yeast; also called Antibody Number 242; Ab # 242
# B16: ADI-18933 (antibody, V domains shown)
# VH: QVQLVESGAEVKKPGASVKVACTASGYAFTNYNIHWVRLAPGQGLEWMAIINPGSGGTDYSEKFQGRLTLTSDTSTSTVYMTLGSLRYEDTAFYYCARRGYPDSGSYPLDYWGQGTLVTVSS
# VL: DIVMTQSPSSLSASLGDRVTITCRAGRSIATYLNWYQQKPGKAPKLLIYGASSLQSGVPSRFSGSGSGTHFTLTISSLQPEDFATYYCQQSYIRPITFGGGTKVEIK
# notes: full-length IgG from yeast
# Biological target: RSV F protein of subtype A (strain A2) on recombinant mKate-RSV virus (Respiratory syncytial virus subtype A …, UniProt P03420 26-574)
# Test: cell-based or functional assay
row,Binder,Neut IC50 (µg/ml) subtype A [µg/mL]
1,B1,0.377
2,B2,2.3
3,B3,0.374
4,B4,0.837
5,B5,0.572
6,B6,> 10
7,B7,0.376
8,B8,9.61
9,B9,> 10
10,B10,0.301
11,B11,> 10
12,B12,6.29
13,B13,0.288
14,B14,0.11
15,B15,1.11
16,B16,0.075

# Biological target: RSV F protein of subtype B (18537) on recombinant mKate-RSV virus (Respiratory syncytial virus subtype B …, UniProt P13843 26-574)
# Test: cell-based or functional assay
row,Binder,Neut IC50 (µg/ml) subtype B [µg/mL]
1,B1,4.59
2,B2,> 10
3,B3,0.614
4,B4,4.25
5,B5,1.07
6,B6,0.333
7,B7,8.63
8,B8,6.27
9,B9,8.31
10,B10,4.85
11,B11,> 10
12,B12,10.6
13,B13,0.762
14,B14,0.169
15,B15,> 10
16,B16,0.137

# Biological target: T1, RSV F subtype A, furin-cleaved ectodomain stabilized in the prefusion conformation (DS-Cav1) (Respiratory syncytial virus subtype A, UniProt P03420 26-524)
# T1 construct: extracellular domain; Trimeric soluble antigen; also called Prefusion subtype A
# Test: BLI, IgG on AHQ sensor, 100 nM antigen
row,Binder,Kd [pM]
1,B3,865
2,B4,165
3,B5,6480

# Biological target: T2, RSV F subtype A, furin-cleaved ectodomain stabilized in the postfusion conformation (F ΔFP) (Respiratory syncytial virus subtype A, UniProt P03420 26-109; P03420 147-524)
# T2 construct: extracellular domain; Trimeric soluble antigen; also called Postfusion subtype A
# Test: BLI, IgG on AHQ sensor, 100 nM antigen
row,Binder,Kd [pM]
1,B1,567
2,B2,2370
3,B3,281
4,B4,216
5,B5,411
6,B10,353
7,B11,19100
8,B16,20000

# Biological target: T3, RSV F subtype B, furin-cleaved ectodomain stabilized in the prefusion conformation (DS-Cav1) (Respiratory syncytial virus subtype B)
# T3 construct: extracellular domain; Trimeric soluble antigen; also called Prefusion subtype B
# Test: BLI, IgG on AHQ sensor, 100 nM antigen
row,Binder,Kd [pM]
1,B3,512
2,B4,150
3,B6,445
4,B7,3890
5,B8,2630
6,B9,5820
7,B12,1240
8,B13,1530
9,B14,288
10,B15,12200

# Biological target: T4, RSV F subtype B, furin-cleaved ectodomain stabilized in the postfusion conformation (F ΔFP) (Respiratory syncytial virus subtype B)
# T4 construct: extracellular domain; Trimeric soluble antigen; also called Postfusion subtype B
# Test: BLI, IgG on AHQ sensor, 100 nM antigen
row,Binder,Kd [pM]
1,B1,409
2,B2,486
3,B3,258
4,B4,168
5,B5,321
6,B6,412
7,B7,307
8,B8,394
9,B9,388
10,B10,280
11,B11,645
12,B12,209
13,B13,185
14,B14,225
15,B15,549
16,B16,616

# From patent US20200223906A1 (Adimab, published 2020)
